Results published in IntAct's records for PubMed 12832462.

B1: Nuclear factor NF-kappa-B p105 subunit (Homo sapiens), P19838 (parent)
chain: MAEDDPYLGRPEQMFHLDPSLTHTIFNPEVFQPQMALPTDGPYLQILEQPKQRGFRFRYVCEGPSHGGLPGASSEKNKKSYPQVKICNYVGPAKVIVQLVTNGKNIHLHAHSLVGKHCEDGICTVTAGPKDMVVGFANLGILHVTKKKVFETLEARMTEACIRGYNPGLLVHPDLAYLQAEGGGDRQLGDREKELIRQAALQQTKEMDLSVVRLMFTAFLPDSTGSFTRRLEPVVSDAIYDSKAPNASNLKIVRMDRTAGCVTGGEEIYLLCDKVQKDDIQIRFYEEEENGGVWEGFGDFSPTDVHRQFAIVFKTPKYKDINITKPASVFVQLRRKSDLETSEPKPFLYYPEIKDKEEVQRKRQKLMPNFSDSFGGGSGAGAGGGGMFGSGGGGGGTGSTGPGYSFPHYGFPTYGGITFHPGTTKSNAGMKHGTMDTESKKDPEGCDKSDDKNTVNLFGKVIETTEQDQEPSEATVGNGEVTLTYATGTKEESAGVQDNLFLEKAMQLAKRHANALFDYAVTGDVKMLLAVQRHLTAVQDENGDSVLHLAIIHLHSQLVRDLLEVTSGLISDDIINMRNDLYQTPLHLAVITKQEDVVEDLLRAGADLSLLDRLGNSVLHLAAKEGHDKVLSILLKHKKAALLLDHPNGDGLNAIHLAMMSNSLPCLLLLVAAGADVNAQEQKSGRTALHLAVEHDNISLAGCLLLEGDAHVDSTTYDGTTPLHIAAGRGSTRLAALLKAAGADPLVENFEPLYDLDDSWENAGEDEGVVPGTTPLDMATSWQVFDILNGKPYEPEFTSDDLLAQGDMKQLAEDVKLQLYKLLEIPDPDKNWATLAQKLGLGILNNAFRLSPAPSKTLMDNYEVSGGTVRELVEALRQMGYTEAIEVIQAASSPVKTTSQAHSLPLSPASTRQQIDELRDSDSVCDSGVETSFRKLSFTESLTSGASLLTLNKMPHDYGQEGPLEGKI

Variants of: B1
Conditions: with m3k8_human MAP3K8, P41279
Chain of m3k8_human MAP3K8, P41279 (P41279 whole entry): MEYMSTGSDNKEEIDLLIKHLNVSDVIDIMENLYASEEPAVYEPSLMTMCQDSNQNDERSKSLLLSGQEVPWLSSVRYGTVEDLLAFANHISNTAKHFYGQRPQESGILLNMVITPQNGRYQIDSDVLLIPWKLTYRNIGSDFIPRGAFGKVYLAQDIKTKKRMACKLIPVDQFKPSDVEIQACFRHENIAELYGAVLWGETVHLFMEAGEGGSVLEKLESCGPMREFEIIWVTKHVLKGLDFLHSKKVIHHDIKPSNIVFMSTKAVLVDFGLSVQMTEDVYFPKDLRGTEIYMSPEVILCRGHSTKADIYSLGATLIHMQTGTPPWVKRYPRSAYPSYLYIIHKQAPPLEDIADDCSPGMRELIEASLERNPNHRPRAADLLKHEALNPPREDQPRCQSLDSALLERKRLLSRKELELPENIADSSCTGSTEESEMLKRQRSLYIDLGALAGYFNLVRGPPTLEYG
With L841A the “effect of a mutation on the interaction” value was “decreasing interaction”.
